Experimental findings from patent US20240116985A1 (published 2024) are described below.

Assay in all cases: cell-based or functional assay
One test addresses T1, B-cat-Halo (UniProt P35222 1-781).
T1 sequence (looked up): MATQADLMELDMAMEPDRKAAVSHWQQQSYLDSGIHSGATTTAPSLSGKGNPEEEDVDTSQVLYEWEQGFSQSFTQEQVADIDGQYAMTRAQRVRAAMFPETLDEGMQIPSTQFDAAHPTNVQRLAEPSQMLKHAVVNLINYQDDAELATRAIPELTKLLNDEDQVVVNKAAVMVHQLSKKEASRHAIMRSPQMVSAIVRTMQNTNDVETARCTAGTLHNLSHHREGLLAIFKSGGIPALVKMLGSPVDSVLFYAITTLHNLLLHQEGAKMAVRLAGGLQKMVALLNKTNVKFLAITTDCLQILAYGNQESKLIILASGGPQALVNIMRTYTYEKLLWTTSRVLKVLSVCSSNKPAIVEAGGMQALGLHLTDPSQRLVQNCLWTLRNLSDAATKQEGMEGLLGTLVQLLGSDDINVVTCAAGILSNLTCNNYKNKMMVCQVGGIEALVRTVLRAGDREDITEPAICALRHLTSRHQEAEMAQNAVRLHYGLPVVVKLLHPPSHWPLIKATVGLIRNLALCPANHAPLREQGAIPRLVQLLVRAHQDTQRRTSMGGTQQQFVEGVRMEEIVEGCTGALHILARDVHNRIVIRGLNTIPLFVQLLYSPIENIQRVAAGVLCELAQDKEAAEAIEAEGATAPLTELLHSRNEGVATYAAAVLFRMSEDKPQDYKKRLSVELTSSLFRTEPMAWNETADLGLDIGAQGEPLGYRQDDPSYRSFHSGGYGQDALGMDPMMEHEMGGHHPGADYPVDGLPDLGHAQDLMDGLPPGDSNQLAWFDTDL

In test [1] the target is T2, B-cat-Halo (beta-catenin HaloTag construct expressed in HEK293 cells) (UniProt P35222 1-781).
T2 sequence (looked up): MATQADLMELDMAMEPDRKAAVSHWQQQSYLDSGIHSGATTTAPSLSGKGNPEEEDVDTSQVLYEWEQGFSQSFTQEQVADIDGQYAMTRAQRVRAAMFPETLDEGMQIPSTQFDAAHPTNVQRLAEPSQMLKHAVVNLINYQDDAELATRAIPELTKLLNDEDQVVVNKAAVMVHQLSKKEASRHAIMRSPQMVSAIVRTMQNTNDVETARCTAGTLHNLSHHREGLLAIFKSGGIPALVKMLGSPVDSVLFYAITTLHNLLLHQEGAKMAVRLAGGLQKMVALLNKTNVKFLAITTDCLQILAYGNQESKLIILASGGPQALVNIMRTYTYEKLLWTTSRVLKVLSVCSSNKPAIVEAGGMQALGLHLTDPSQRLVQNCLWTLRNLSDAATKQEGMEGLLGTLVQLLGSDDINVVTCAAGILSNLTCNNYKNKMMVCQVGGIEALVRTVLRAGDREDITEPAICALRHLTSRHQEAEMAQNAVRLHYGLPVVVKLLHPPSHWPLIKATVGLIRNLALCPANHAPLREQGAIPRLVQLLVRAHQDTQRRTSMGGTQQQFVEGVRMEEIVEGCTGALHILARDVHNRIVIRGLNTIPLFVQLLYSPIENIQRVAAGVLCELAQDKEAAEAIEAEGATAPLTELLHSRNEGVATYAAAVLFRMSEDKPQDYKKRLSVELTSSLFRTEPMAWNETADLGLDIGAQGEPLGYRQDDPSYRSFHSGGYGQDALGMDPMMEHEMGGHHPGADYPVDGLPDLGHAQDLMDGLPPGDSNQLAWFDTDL

The target of test [2] is T3, beta-catenin in TCF/LEF luciferase reporter cells (Homo sapiens (Human), UniProt P35222 1-781).
T3 sequence: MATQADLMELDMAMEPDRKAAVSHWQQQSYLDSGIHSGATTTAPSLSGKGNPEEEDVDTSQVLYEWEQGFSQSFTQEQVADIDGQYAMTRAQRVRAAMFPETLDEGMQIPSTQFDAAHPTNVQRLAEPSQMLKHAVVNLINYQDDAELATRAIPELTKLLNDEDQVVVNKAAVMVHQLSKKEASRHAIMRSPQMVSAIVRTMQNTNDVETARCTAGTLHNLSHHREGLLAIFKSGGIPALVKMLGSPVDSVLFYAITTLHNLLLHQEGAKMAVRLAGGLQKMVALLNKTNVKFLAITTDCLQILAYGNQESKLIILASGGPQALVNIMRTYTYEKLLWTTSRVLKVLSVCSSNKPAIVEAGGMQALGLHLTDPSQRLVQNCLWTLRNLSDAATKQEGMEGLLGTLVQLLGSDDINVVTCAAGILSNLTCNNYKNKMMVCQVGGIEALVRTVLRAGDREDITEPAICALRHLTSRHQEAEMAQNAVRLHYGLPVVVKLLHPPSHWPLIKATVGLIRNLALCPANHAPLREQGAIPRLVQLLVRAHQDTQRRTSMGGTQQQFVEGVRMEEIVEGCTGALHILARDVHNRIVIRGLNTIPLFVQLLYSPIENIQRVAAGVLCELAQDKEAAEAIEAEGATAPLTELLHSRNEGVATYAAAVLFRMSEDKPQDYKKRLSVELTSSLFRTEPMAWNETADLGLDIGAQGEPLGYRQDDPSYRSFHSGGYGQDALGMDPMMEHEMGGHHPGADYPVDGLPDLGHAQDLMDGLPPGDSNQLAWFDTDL

The target in test [3] is T4, B-cat-Halo (NanoBRET construct expressed in HEK293 cells) (UniProt P35222 1-781).
T4 sequence (looked up): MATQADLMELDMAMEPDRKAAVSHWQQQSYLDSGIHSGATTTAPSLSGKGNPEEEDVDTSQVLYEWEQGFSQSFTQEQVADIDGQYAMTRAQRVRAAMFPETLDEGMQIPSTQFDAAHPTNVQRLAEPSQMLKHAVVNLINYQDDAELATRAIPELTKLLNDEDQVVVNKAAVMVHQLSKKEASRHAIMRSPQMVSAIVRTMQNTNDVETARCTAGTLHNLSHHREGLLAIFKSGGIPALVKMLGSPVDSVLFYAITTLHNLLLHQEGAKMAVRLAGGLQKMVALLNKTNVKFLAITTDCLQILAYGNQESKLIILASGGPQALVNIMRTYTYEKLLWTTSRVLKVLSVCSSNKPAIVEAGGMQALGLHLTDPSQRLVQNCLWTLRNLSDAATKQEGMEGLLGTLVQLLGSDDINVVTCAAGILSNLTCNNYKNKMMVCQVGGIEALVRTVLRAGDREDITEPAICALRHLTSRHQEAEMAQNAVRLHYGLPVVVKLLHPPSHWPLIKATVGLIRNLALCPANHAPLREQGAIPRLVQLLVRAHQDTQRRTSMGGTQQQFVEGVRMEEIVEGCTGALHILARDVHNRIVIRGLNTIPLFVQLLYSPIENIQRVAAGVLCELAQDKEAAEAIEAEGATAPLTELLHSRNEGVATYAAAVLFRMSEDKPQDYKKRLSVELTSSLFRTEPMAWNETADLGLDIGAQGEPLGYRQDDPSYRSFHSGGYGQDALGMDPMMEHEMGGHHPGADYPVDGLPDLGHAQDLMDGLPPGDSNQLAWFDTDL

Starred links: 1 amine or outer side, 2 acyl side, 3 side chain; linkers in the order of their positions; H or OH if unused. Positions of bridges follow the written chain, without caps; N, C: chain ends. Non-standard residues stand in square brackets, D forms with d. Primed or numbered codes have the meaning given here. PyrS2″ = (S)-3-amino-1-((pent-4-en-1-yloxy)carbonyl)pyrrolidine-3-carboxylic acid (stapling residue), C=CCCCOC(=O)N1CC[C@@](N[*:1])(C(=O)[*:2])C1; B5(4) = 2,2-bis(4-pentenyl)glycine = 2-amino-2-(pent-4-en-1-yl)hept-6-enoic acid (stitching residue), C=CCCCC(CCCC=C)(N[*:1])C(=O)[*:2]; B5(20) = 2-amino-2-(pent-4-en-1-yl)hept-6-enoic acid = bis(4-pentenyl)glycine, stitching residue, C=CCCCC(CCCC=C)(N[*:1])C(=O)[*:2]; TfeGA = (S)-2-amino-3-((carboxymethyl)(2,2,2-trifluoroethyl)amino)propanoic acid, O=C([C@H](CN(CC(=O)[*:3])CC(F)(F)F)N[*:1])[*:2]; B5(3) = 2,2-bis(4-pentenyl)glycine (stitching residue), C=CCCCC(CCCC=C)(N[*:1])C(=O)[*:2]; B5″ = 2,2-bis(4-pentenyl)glycine, stitching residue, C=CCCCC(CCCC=C)(N[*:1])C(=O)[*:2]; Phe(2-Cl) = N[C@@H](Cc1ccccc1Cl)C(=O)O; Bta = N[C@@H](Cc1csc2ccccc12)C(=O)O; αAllylPro = C=CC[C@@]1(C(=O)O)CCCN1; tBuAla = CC(C)(C)C[C@H](N)C(=O)O; 3Thi = N[C@@H](Cc1ccsc1)C(=O)O; Cha = N[C@@H](CC1CCCCC1)C(=O)O; S8 = C=CCCCCCC[C@](C)(N)C(=O)O; Thr(ol) = C[C@@H](O)[C@H](N)CO; hSer = N[C@@H](CCO)C(=O)O

B1: I-1310 (peptide)
peptide: Ac-[αAllylPro]D[Cha][B5(4)]DTAAFT[PyrS2″][Phe(2-Cl)][Bta][Thr(ol)]
modifications: staple 1-4, 4-11
For B1, in the test with B-cat-Halo, the “NanoBRET Abs IC50 (uM); B-cat-Halo / TCF4-Luc in HEK293 cells” value is above 20 µM.

B2: I-1307 (peptide)
peptide: Ac-[αAllylPro]D[Cha][B5(4)]DDAAFL[PyrS2″][Phe(2-Cl)][Bta][Thr(ol)]
modifications: staple 1-4, 4-11
For the molecule B2, the “NanoBRET Abs IC50 (uM); B-cat-Halo / TCF4-Luc in HEK293 cells” value with B-cat-Halo came to 38.8 µM.

B3: I-1188 (peptide)
peptide: Ac-[αAllylPro]D[tBuAla][B5″]DDAAFL[S8][3Thi][Bta]Q-NH2
modifications: staple 1-4, 4-11
As for B3, the “NanoBRET Abs IC50” value in test [1] came to 7.2 µM.

B4: I-993 (peptide)
peptide: Ac-[αAllylPro]D[tBuAla][B5(3)]D[TfeGA]AAF[hSer][PyrS2″][Phe(2-Cl)][Bta][hSer]-NH2
modifications: staple 1-4, 4-11
For B4, in test [2], the “TCF Reporter Assay Abs IC50 (uM), peptide + ST-Protein” value was found to be 0.2 µM and the “TCF Reporter Assay Abs IC50 (uM), peptide only” value came to 5 µM.

B5: I-1167 (peptide)
peptide: Ac-[αAllylPro]D[tBuAla][B5(4)]DTAAFL[PyrS2″][3Thi][Bta]Q-NH2
modifications: staple 1-4, 4-11
On to B5, for which the “NanoBRET Abs IC50” value in test [1] is 11.7 µM.

B6: I-1308 (peptide)
peptide: Ac-[αAllylPro]D[tBuAla][B5(4)]DDAAFT[S8][Phe(2-Cl)][Bta][Thr(ol)]
modifications: staple 1-4, 4-11
B6: in the test with B-cat-Halo, the “NanoBRET Abs IC50 (uM); B-cat-Halo / TCF4-Luc in HEK293 cells” value turned out to be 11.9 µM.

B7: I-517 (peptide)
peptide: Ac-[αAllylPro]DI[B5(20)]DEAAFN[S8][3Thi][Bta]H-NH2
modifications: staple 1-4, 4-11
Consider B7, for which the “NanoBRET Abs IC50” value in test [3] was found to be 9.7 µM.
